Patent US20250129146A1, “COMBINED CANCER THERAPY WITH AN EPITHELIAL CELL ADHESION MOLECULE (EPCAM) INHIBITOR AND A WNT INHIBITOR” (ACADEMIA SINICA, priority 2021, published 2025)

Legend:
Assay type in all cases: cell-based, human
HT29 and SW620 cells = test: Colony formation assay; conditions: for colony formation capacity: SW620 cells, exogenous Wnt3A, EpEX or combination
Protocol: Cells were seeded in 12-well plate (5×10^3 cells per well) and treated with 20 µg/mL mEpAb2-6, hEpAb2-6 or MT201 (Produced in house) or 400 ng/mL LGK974 (MedChemExpress) or combination as indicated in which case the elements were directly added to the culture medium. The medium along with the treatment component were changed in every alternating day and the cells were allowed to grow for 10 days. On the tenth day, cells were washed and fixed with 4% paraformaldehyde and further stained with 1% crystal violet for 30 min. Colonies were washed 3 times with PBS, and images were taken. Furthermore, to measure colony density, the wells were incubated with 0.5% SDS shaking for 2 h at RT. The supernatants were collected, and the absorbance of the solution was taken at 570 nm using a microplate reader.

[1] = test system: HCT116, HT29 and SW620 cells; test: Tumorsphere assay; conditions: for sphere formation capacity: SW620 cells, exogenous Wnt3A, EpEX or combination
Protocol: Cells were seeded in ultra-low adherent 6-well plates (5×10^4 cells per well) or 24-well plates (1×10^3 cells per well) and maintained in DMEM/F-12 supplemented with B27. Further, cells were treated with 20 μg/mL mEpAb2-6, hEpAb2-6 or MT201 (Produced in house), or 400 ng/mL LGK974 (MedChemExpress) or the combination, by direct addition to the culture medium. The entire culture medium, including the treatment component, was changed in every other day. Cells were cultured for 10 days, and on 10th day, spheres were counted and photographed under the microscope.

active β-Catenin = test: Nuclear translocation of β-Catenin (immunofluorescence staining; cell fractionation with western blot)
Protocol: Cells (1×10^6) were seeded overnight and further allowed to grow in serum free conditions. Then cells were further treated with 20 μg/mL mEpAb2-6 or hEpAb2-6 or MT201 for 6 h or with 400 ng/mL LGK974 (MedChemExpress) for 9 h or combination as indicated. Samples were fractioned into cytosol and nuclear extracts using nuclear/cytosol fractionation kit (Biovision) according to the manufacturer's protocol. The fractions were then subjected to western blot analysis.
(§1) For western blotting, cells were extracted using radioimmunoprecipitation assay (RIPA) buffer [(0.01 M sodium phosphate, pH 7.2), 150 mM NaCl, 2 mM EDTA, 50 mM NaF, 1% Nonidet P-40, 1% sodium deoxycholate, and 0.1% SDS)] containing phosphatase inhibitor (Roche) and protease inhibitor (Roche) cocktail. Equal amounts of protein were separated by SDS-PAGE and then transferred to PVDF membranes. The membranes were blocked with 3% BSA in TBST (Blocking solution) and incubated with necessary primary antibodies in the blocking solution overnight at 4° C. Membranes were then incubated with HRP-conjugated secondary antibodies in the blocking solution for 1 h at room temperature, and protein expression were detected. Antibodies used: anti-α-tubulin (Sigma), anti-EpCAM (abeam), anti-Active β-Catenin (Millipore), anti-total β-Catenin (abeam), anti-Frizzled 6 (CST), anti-Frizzled 7 (Santa Cruz Biotech), anti-LRP5 (abcam), anti-Phospho-LRP5 (abcam), anti-Phospho-LRP6 (CST), anti-LRP6 (CST) and anti-EpEX antibody EpAb3-5 (Produced in house), anti-ADAM17 (abcam), anti-phopho-ADAM17 (abcam), anti-Presenilin2 (abcam), anti-phospho-Presenilin2 (S327) (abcam), anti-phospho-Presenilin2 (S330) (abcam) and anti-Axin2 (CST).
Glass slides were used in 24-well plates and coated with 0.1% gelatin. Further, 3×10^4 cells were seeded in serum free medium overnight. Cells were treated with 20 μg/mL EpAb2-6 for 6 h, or 400 ng/mL LGK974 (MedChemExpress) for 9 h or the combination. Cells were washed using ice-cold PBS and fixed with 4% paraformaldehyde for 15 min at RT and washed with ice-cold PBS. Further, cells were permeabilized using 0.1% triton-X in PBS for 20 min and subsequently washed with PBS. Cells were blocked with 3% BSA in PBS for 1 h at RT. Next, cells were treated with primary antibody anti-Active β-Catenin (Millipore) overnight. Then, cells were washed and treated with secondary antibody in 3% BSA containing PBS along with DAPI for 1 h at RT. Samples were then washed in PBS five times and mounted for microscopy. Nuclear β-Catenin intensities were calculated using IMARIS (Oxford Instruments) software.

TCF = TCF activity (TOP-Flash TCF luciferase reporter)
Protocol: Cells were plated at 5×10^3 cells per well and grown overnight in 12-well plates. Then, cells were transiently transfected with TOP-Flash TCF reporter plasmid (Millipore) using poly-jet transfection reagent (SignaGen). At 48 h post transfection, cells were treated with 20 µg/mL Anti-EpCAM EpAb2-6 (Produced in house) or MT201 (Produced in house) for 6 h or 400 ng/mL LGK974 (MedChemExpress) for 9 h or the combination, as indicated. In addition, cells were treated with EpEX (Produced in house by Expi293 Expression System) or recombinant Wnt3A (R & D systems) or the combination for 8 h. Finally, cells were lysed, and the luciferase assay was performed.
The cells were seeded in 24-well plates (1×10^4 cells/well) and incubated at 37° C. for 24 h. The culture media were refreshed, and the cells were transfected with respective reporter plasmids (TCF reporter or Wnt receptor promoter reporter) by PolyJET (SignaGen). The transfected efficiency was normalized by co-transfected with pRL-TK (20 ng) as an internal control. Additional treatments were conducted as indicated. Firefly luciferase and Renilla luminescence were measured 48 h post-transfection using the Dual-Glo Luciferase Assay System (Promega), according to the manufacturer's recommendations.

Oct4, Sox2 and c-Myc = test: Stemness (pluripotency) factor expression (western blot, qPCR); conditions: HT29 cells
Protocol: as §1
(§2) Total RNA was extracted using TRI reagent and 5 μg of the total RNA was further reverse-transcribed using oligo (dT) primer with reverse transcriptase. Quantitative real time RT-PCR (qPCR) was performed on cDNA using the Light Cycler 480 SYBR Green-I Master kit and the LightCycler480 System. The gene expression levels of each sample were normalized to the expression levels of glyceraldehyde 3-phosphate dehydrogenase (GAPDH) or β-actin.

LRP5/6 = test: Phosphorylation of LRP5/6 (western blot)
Protocol: as §1

[2] = test system: Wnt receptors (FZD6/7, LRP5/6); test: Wnt receptor protein and mRNA expression (western blot, qPCR); conditions: HCT116 cells
Protocol: as §1, §2

[3] = EpCAM-knockout cells, exogenous EpEX, LGK974 or both
[4] = HCT116 cells, exogenous EpEX, Wnt3A or combination
[5] = wild-type HCT116 cells, EpEX, recombinant Wnt3A or both
[6] = EpEX, Wnt3A or combination, protein and mRNA level
[7] = wild-type SW620 and HCT116 cells, EpEX, recombinant Wnt3A or the combination for 8 h

**Q.** “MT201: adecatumumab, a human anti-EpCAM antibody that was subjected to clinical trials [reference compound]” was tested. Which “ability to inhibit colony formation” value (HT29 and SW620 cells; comparison of EpAb2-6 with MT201, 20 g/mL) did it give?
**A.** shows no activity

**Q.** What about the “ability to inhibit sphere formation” value ([1]; comparison of EpAb2-6 with MT201, 20 μg/mL) of the same molecule?
**A.** shows no activity

**Q.** And the “nuclear translocation of β-Catenin” value (active β-Catenin; HT29 cells, 20 μg/mL hEpAb2-6 or MT201 for 6 h)?
**A.** did not show any significant effects

**Q.** What about the TCF activity (TCF; HT29 cells, 20 µg/mL antibody for 6 h) of the same molecule?
**A.** did not show any significant effects

B1: EpAb2-6: anti-EpCAM (EpEX) neutralizing monoclonal antibody produced in mice by hybridoma; VH SEQ ID NO: 15, VL SEQ ID NO: 16 (antibody, V domains shown)
VH: VKLQESGPELKKPGETVKISCKASGYTFTDYSMHWVKQAPGKGLKWMGWINTETGEPTYADDFKGRFAFSLETSASTAYLQINNLKNEDTATYFCARTAVYWGQGTTVTVSS
VL: DIQMTQSPSSLSASLGERVSLTCRASQEISVSLSWLQQEPDGTIKRLIYATSTLDSGVPKRFSGSRSGSDYSLTISSLESEDFVDYYCLQYASYPWTFGGGTKLEIK
**Q.** For B1, which “expression of pluripotency factors” value (Oct4, Sox2 and c-Myc; LGK974, EpAb2-6 or combined treatment) is on record?
**A.** decreased pluripotency factor expressions

**Q.** And the colony formation (HT29 and SW620 cells; HT29 cells, 20 µg/mL EpAb2-6, 400 ng/mL LGK974 or combination, 10 days)?
**A.** decreased

**Q.** And the LRP5/6 phosphorylation (LRP5/6; SW620 cells, LGK974, EpAb2-6 or combined treatment)?
**A.** could decrease LRP5/6 phosphorylation

**Q.** And the tumorsphere formation ([1]; HCT116 and HT29 cells, 20 μg/mL EpAb2-6, 400 ng/mL LGK974 or combination, 10 days)?
**A.** decreased

**Q.** And the cancer stemness properties ([1]; summary statement, CRC cells, tumorsphere and colony formation)?
**A.** partially attenuate cancer sternness properties

**Q.** And the “nuclear β-Catenin” value (active β-Catenin; wild-type HCT116 cells, 20 μg/mL EpAb2-6 for 6 h, 400 ng/mL LGK974 for 9 h or combination)?
**A.** significantly decreased nuclear β-Catenin signal

**Q.** And the “expression of Wnt receptors” value ([2]; EpAb2-6, LGK974 or combination)?
**A.** partially decrease

B2: EpEX: extracellular domain of EpCAM, produced in house by Expi293 Expression System (protein)
chain: QEECVCENYKLAVNCFVNNNRQCQCTSVGAQNTVICSKLAAKCLVMKAEMNGSKLGRRAKPEGALQNNDGLYDPDCDESGLFKAKQCNGTSMCWCVNTAGVRRTDKDTEITCSERVRTYWIIIELKHKAREKPYDSKSLRTALQKEITTRYQLDPKFITSILYENNVITIDLVQNSSQKTQNDVDIADVAYYFEKDVKGESLFHSKKMDLTVNGEQLDLDPGQTLIYYVDEKAPEFSMQGLKAGVIAVIVVVVIAVVAGIVVLVISRKKRMAKYEKAEIKEMGEMHRELNA
**Q.** With B2 as the molecule, how does the “expression of pluripotency factors” value (Oct4, Sox2 and c-Myc; EpEX, Wnt3A or combination) read?
**A.** induced expressions of pluripotency factors

**Q.** And the colony formation (HT29 and SW620 cells; [3])?
**A.** reverted to wild-type levels

**Q.** What about the colony formation capacity (HT29 and SW620 cells) of the same molecule?
**A.** enhanced

**Q.** And the LRP5/6 phosphorylation (LRP5/6; [4])?
**A.** increased LRP5/6 phosphorylation

**Q.** And the tumorsphere formation [1, 3]?
**A.** reverted to wild-type levels

**Q.** And the sphere formation capacity [1]?
**A.** enhanced

**Q.** What about the “nuclear accumulation of β-Catenin” value (active β-Catenin; shEpCAM or KO-EpCAM HCT116 cells treated with exogenous EpEX) of the same molecule?
**A.** significant increase in nuclear accumulation of β-Catenin

**Q.** And the “nuclear translocation of β-Catenin” value (active β-Catenin; [5])?
**A.** could increase

**Q.** And the “expression of Wnt receptors” value [2, 6]?
**A.** upregulated expressions of Wnt receptors

**Q.** What about the TCF activity (TCF; EpEX-treated EpCAM-knockdown and knockout HCT116 cells) of the same molecule?
**A.** significantly rescued the phenomenon

**Q.** What about the TCF activity (TCF; [7]) of the same molecule?
**A.** could increase

B3: Wnt3A: recombinant Wnt3A (R & D systems) (protein, UniProt P56704 19-352, looked up)
Protein Wnt-3a: SYPIWWSLAVGPQYSSLGSQPILCASIPGLVPKQLRFCRNYVEIMPSVAEGIKIGIQECQHQFRGRRWNCTTVHDSLAIFGPVLDKATRESAFVHAIASAGVAFAVTRSCAEGTAAICGCSSRHQGSPGKGWKWGGCSEDIEFGGMVSREFADARENRPDARSAMNRHNNEAGRQAIASHMHLKCKCHGLSGSCEVKTCWWSQPDFRAIGDFLKDKYDSASEMVVEKHRESRGWVETLRPRYTYFKVPTERDLVYYEASPNFCEPNPETGSFGTRDRTCNVSSHGIDGCDLLCCGRGHNARAERRREKCRCVFHWCCYVSCQECTRVYDVHTCK
**Q.** Which “expression of pluripotency factors” value (Oct4, Sox2 and c-Myc; EpEX, Wnt3A or combination) does the source give for B3 here?
**A.** induced expressions of pluripotency factors

**Q.** And the colony formation capacity (HT29 and SW620 cells)?
**A.** enhanced

**Q.** And the LRP5/6 phosphorylation (LRP5/6; [4])?
**A.** increased LRP5/6 phosphorylation

**Q.** What about the sphere formation capacity [1] of the same molecule?
**A.** enhanced

**Q.** What about the “nuclear translocation of β-Catenin” value (active β-Catenin; [5]) of the same molecule?
**A.** could increase

**Q.** And the “expression of Wnt receptors” value [2, 6]?
**A.** upregulated expressions of Wnt receptors

**Q.** And the TCF activity (TCF; [7])?
**A.** could increase
